Measured values from the supplement of paper PMC5998384.

Columns and labels:
HeLa Kyoto [1] = experiment: solubility in G1/S (NP-40 vs SDS abundance) (log2 ratio); higher = more soluble; conditions: cell cycle stage: G1/S
HeLa Kyoto [2] = experiment: solubility change mitosis vs G1/S (difference of NP-40 vs SDS log2 ratios) (log2 ratio difference); higher = more soluble in mitosis
HeLa Kyoto [3] = experiment: thermal stability score vs G1/S (z-score of summed log2 fold changes over temperatures); higher = more thermally stable than in G1/S
[4] = cell cycle stage: early G1 (4.5 h after nocodazole release)
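For solubility change mitosis vs G1/S (difference of NP-40 vs SDS log2 ratios) in this document: synchronized HeLa Kyoto cells (double thymidine block for G1/S, nocodazole release for mitosis), protein amounts in NP-40 versus SDS lysates quantified by mass spectrometry, three biological replicates.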
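For solubility in G1/S (NP-40 vs SDS abundance) in this document: HeLa Kyoto cells arrested at G1/S by double thymidine block, proteins quantified by TMT10plex mass spectrometry in mild NP-40 versus SDS extracts, three biological replicates.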
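For thermal stability score vs G1/S (z-score of summed log2 fold changes over temperatures) in this document: synchronized HeLa Kyoto cells, proteins quantified by TMT10plex mass spectrometry, three biological replicates, mitosis taken 0.5 h after nocodazole release, G1/S directly after double thymidine block.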

Row | Substance | solubility in G1/S (log2) (HeLa Kyoto [1]) | solubility change mitosis (log2) (HeLa Kyoto [2]) | thermal stability score (HeLa Kyoto [3]; [4]) | thermal stability score (HeLa Kyoto [3]; cell cycle stage: mitosis)
1 | MAAVAAEAAATAASPGEGGAGEAEPEMEPIPGSEAGTDPLPVTATEASVPDGETDGQQSAPQADEPPLPPPPPPPGELARSPEAVGPELEAEEKLSVRVAESAAAAPQGGPELPPSPASPPEQPPAPEEREEPPLPQPVAPALVPPAGGDSTVSQLIPGSEVRVTLDHIIEDALVVSFRFGEKLFSGVLMDLSKRFGPHGIPVTVFPKREYKDKPEAMPLQSNTFQEGTEVKCEANGAVPDDPSPVPHPELSLAESLWTSKPPPLFHEGAPYPPPLFIRDTYNQSIPQPPPRKIKRPKRKMYREEPTSIMNAIKLRPRQVLCDKCKNSVVAEKKEIRKGSSATDSSKYEDKKRRNESVTTVNKKLKTDHKVDGKNQNESQKRNAVVKVSNIAHSRGRVVKVSAQANTSKAQLSTKKVLQSKNMDHAKAREVLKIAKEKAQKKQNETSTSKNAHSKVHFTRRYQNPSSGSLPPRVRLKPQRYRNEENDSSLKTGLEKMRSGKMAPKPQSRCTSTRSAGEAPSENQSPSKGPEEASSEVQDTNEVHVPGDQDEPQTLGKKGSKNNISVYMTLNQKKSDSSSASVCSIDSTDDLKSSNSECSSSESFDFPPGSMHAPSTSSTSSSSKEEKKLSNSLKMKVFSKNVSKCVTPDGRTICVGDIVWAKIYGFPWWPARILTITVSRKDNGLLVRQEARISWFGSPTTSFLALSQLSPFLENFQSRFNKKRKGLYRKAITEAAKAAKQLTPEVRALLTQFET [PWWP2A] | -0.7 | 0.43 | 1.31 | 1.07
2 | MAASKTQGAVARMQEDRDGSCSTVGGVGYGDSKDCILEPLSLPESPGGTTTLEGSPSVPCIFCEEHFPVAEQDKLLKHMIIEHKIVIADVKLVADFQRYILYWRKRFTEQPITDFCSVIRINSTAPFEEQENYFLLCDVLPEDRILREELQKQRLREILEQQQQERNDTNFHGVCMFCNEEFLGNRSVILNHMAREHAFNIGLPDNIVNCNEFLCTLQKKLDNLQCLYCEKTFRDKNTLKDHMRKKQHRKINPKNREYDRFYVINYLELGKSWEEVQLEDDRELLDHQEDDWSDWEEHPASAVCLFCEKQAETIEKLYVHMEDAHEFDLLKIKSELGLNFYQQVKLVNFIRRQVHQCRCYGCHVKFKSKADLRTHMEETKHTSLLPDRKTWDQLEYYFPTYENDTLLCTLSDSESDLTAQEQNENVPIISEDTSKLYALKQSSILNQLLL [ZNF277] | -0.685 | 0.173 | 0.293 | 1.38
3 | TMEM131 | -0.0423 | -0.0264 | -1.15 | -1.6
4 | MAMQMQLEANADTSVEEESFGPQPISRLEQCGINANDVKKLEEAGFHTVEAVAYAPKKELINIKGISEAKADKILAEAAKLVPMGFTTATEFHQRRSEIIQITTGSKELDKLLQGGIETGSITEMFGEFRTGKTQICHTLAVTCQLPIDRGGGEGKAMYIDTEGTFRPERLLAVAERYGLSGSDVLDNVAYARAFNTDHQTQLLYQASAMMVESRYALLIVDSATALYRTDYSGRGELSARQMHLARFLRMLLRLADEFGVAVVITNQVVAQVDGAAMFAADPKKPIGGNIIAHASTTRLYLRKGRGETRICKIYDSPCLPEAEAMFAINADGVGDAKD [RAD51] | -0.073 | -0.238 | -1.12 | -1.89
5 | MDAWVRFSAQSQARERLCRAAQYACSLLGHALQRHGASPELQKQIRQLESHLSLGRKLLRLGNSADALESAKRAVHLSDVVLRFCITVSHLNRALYFACDNVLWAGKSGLAPRVDQEKWAQRSFRYYLFSLIMNLSRDAYEIRLLMEQESSACSRRLKGSGGGVPGGSETGGLGGPGTPGGGLPQLALKLRLQVLLLARVLRGHPPLLLDVVRNACDLFIPLDKLGLWRCGPGIVGLCGLVSSILSILTLIYPWLRLKP [PEX11B] | -0.779 | 0.18 | 0.106 | 0.142
6 | VKORC1 | -0.134 | 0.136 | -0.761 | -1.55
7 | MAVEDEGLRVFQSVKIKIGEAKNLPSYPGPSKMRDCYCTVNLDQEEVFRTKIVEKSLCPFYGEDFYCEIPRSFRHLSFYIFDRDVFRRDSIIGKVAIQKEDLQKYHNRDTWFQLQHVDADSEVQGKVHLELRLSEVITDTGVVCHKLATRIVECQGLPIVNGQCDPYATVTLAGPFRSEAKKTKVKRKTNNPQFDEVFYFEVTRPCSYSKKSHFDFEEEDVDKLEIRVDLWNASNLKFGDEFLGELRIPLKVLRQSSSYEAWYFLQPRDNGSKSLKPDDLGSLRLNVVYTEDHVFSSDYYSPLRDLLLKSADVEPVSASAAHILGEVCREKQEAAVPLVRLFLHYGRVVPFISAIASAEVKRTQDPNTIFRGNSLASKCIDETMKLAGMHYLHVTLKPAIEEICQSHKPCEIDPVKLKDGENLENNMENLRQYVDRVFHAITESGVSCPTVMCDIFFSLREAAAKRFQDDPDVRYTAVSSFIFLRFFAPAILSPNLFQLTPHHTDPQTSRTLTLISKTVQTLGSLSKSKSASFKESYMATFYEFFNEQKYADAVKNFLDLISSSGRRDPKSVEQPIVLKEGFMIKRAQGRKRFGMKNFKKRWFRLTNHEFTYHKSKGDQPLYSIPIENILAVEKLEEESFKMKNMFQVIQPERALYIQANNCVEAKDWIDILTKVSQCNQKRLTVYHPSAYLSGHWLCCRAPSDSAPGCSPCTGGLPANIQLDIDGDRETERIYSLFNLYMSKLEKMQEACGSKSVYDGPEQEEYSTFVIDDPQETYKTLKQVIAGVGALEQEHAQYKRDKFKKTKYGSQEHPIGDKSFQNYIRQQSETSTHSI [RASA3] | -0.118 | -0.19 | 0.315 | 0.353
8 | MANSMNGRNPGGRGGNPRKGRILGIIDAIQDAVGPPKQAAADRRTVEKTWKLMDKVVRLCQNPKLQLKNSPPYILDILPDTYQHLRLILSKYDDNQKLAQLSENEYFKIYIDSLMKKSKRAIRLFKEGKERMYEEQSQDRRNLTKLSLIFSHMLAEIKAIFPNGQFQGDNFRITKADAAEFWRKFFGDKTIVPWKVFRQCLHEVHQISSGLEAMALKSTIDLTCNDYISVFEFDIFTRLFQPWGSILRNWNFLAVTHPGYMAFLTYDEVKARLQKYSTKPGSYIFRLSCTRLGQWAIGYVTGDGNILQTIPHNKPLFQALIDGSREGFYLYPDGRSYNPDLTGLCEPTPHDHIKVTQEQYELYCEMGSTFQLCKICAENDKDVKIEPCGHLMCTSCLTAWQESDGQGCPFCRCEIKGTEPIIVDPFDPRDEGSRCCSIIDPFGMPMLDLDDDDDREESLMMNRLANVRKCTDRQNSPVTSPGSSPLAQRRKPQPDPLQIPHLSLPPVPPRLDLIQKGIVRSPCGSPTGSPKSSPCMVRKQDKPLPAPPPPLRDPPPPPPERPPPIPPDNRLSRHIHHVESVPSRDPPMPLEAWCPRDVFGTNQLVGCRLLGEGSPKPGITASSNVNGRHSRVGSDPVLMRKHRRHDLPLEGAKVFSNGHLGSEEYDVPPRLSPPPPVTTLLPSIKCTGPLANSLSEKTRDPVEEDDDEYKIPSSHPVSLNSQPSHCHNVKPPVRSCDNGHCMLNGTHGPSSEKKSNIPDLSIYLKGDVFDSASDPVPLPPARPPTRDNPKHGSSLNRTPSDYDLLIPPLGEDAFDALPPSLPPPPPPARHSLIEHSKPPGSSSRPSSGQDLFLLPSDPFVDLASGQVPLPPARRLPGENVKTNRTSQDYDQLPSCSDGSQAPARPPKPRPRRTAPEIHHRKPHGPEAALENVDAKIAKLMGEGYAFEEVKRALEIAQNNVEVARSILREFAFPPPVSPRLNL [CBLB] | -0.447 | 0.0975 | -0.843 | -0.129
9 | MEGLLTRCRALPALATCSRQLSGYVPCRFHHCAPRRGRRLLLSRVFQPQNLREDRVLSLQDKSDDLTCKSQRLMLQVGLIYPASPGCYHLLPYTVRAMEKLVRVIDQEMQAIGGQKVNMPSLSPAELWQATNRWDLMGKELLRLRDRHGKEYCLGPTHEEAITALIASQKKLSYKQLPFLLYQVTRKFRDEPRPRFGLLRGREFYMKDMYTFDSSPEAAQQTYSLVCDAYCSLFNKLGLPFVKVQADVGTIGGTVSHEFQLPVDIGEDRLAICPRCSFSANMETLDLSQMNCPACQGPLTKTKGIEVGHTFYLGTKYSSIFNAQFTNVCGKPTLAEMGCYGLGVTRILAAAIEVLSTEDCVRWPSLLAPYQACLIPPKKGSKEQAASELIGQLYDHITEAVPQLHGEVLLDDRTHLTIGNRLKDANKFGYPFVIIAGKRALEDPAHFEVWCQNTGEVAFLTKDGVMDLLTPVQTV [PARS2] | -0.0434 | -0.176 | -2.04 | -2.68
10 | MAATAVAAAVAGTESAQGPPGPAASLELWLNKATDPSMSEQDWSAIQNFCEQVNTDPNGPTHAPWLLAHKIQSPQEKEALYALTVLEMCMNHCGEKFHSEVAKFRFLNELIKVLSPKYLGSWATGKVKGRVIEILFSWTVWFPEDIKIRDAYQMLKKQGIIKQDPKLPVDKILPPPSPWPKSSIFDADEEKSKLLTRLLKSNHPEDLQAANRLIKNLVKEEQEKSEKVSKRVSAVEEVRSHVKVLQEMLSMYRRPGQAPPDQEALQVVYERCEKLRPTLFRLASDTTDDDDALAEILQANDLLTQGVLLYKQVMEGRVTFGNRVTSSLGDIPVSRVFQNPAGCMKTCPLIDLEVDNGPAQMGTVVPSLLHQDLAALGISDAPVTGMVSGQNCCEEKRNPSSSTLPGGGVQNPSADRNLLDLLSAQPAPCPLNYVSQKSVPKEVPPGTKSSPGWSWEAGPLAPSPSSQNTPLAQVFVPLESVKPSSLPPLIVYDRNGFRILLHFSQTGAPGHPEVQVLLLTMMSTAPQPVWDIMFQVAVPKSMRVKLQPASSSKLPAFSPLMPPAVISQMLLLDNPHKEPIRLRYKLTFNQGGQPFSEVGEVKDFPDLAVLGAA [GGA2] | 0.448 | -0.32 | 0.693 | 1.05
11 | MQRAAALVRRGCGPRTPSSWGRSQSSAAAEASAVLKVRPERSRRERILTLESMNPQVKAVEYAVRGPIVLKAGEIELELQRGIKKPFTEVIRANIGDAQAMGQQPITFLRQVMALCTYPNLLDSPSFPEDAKKRARRILQACGGNSLGSYSASQGVNCIREDVAAYITRRDGGVPADPDNIYLTTGASDGISTILKILVSGGGKSRTGVMIPIPQYPLYSAVISELDAIQVNYYLDEENCWALNVNELRRAVQEAKDHCDPKVLCIINPGNPTGQVQSRKCIEDVIHFAWEEKLFLLADEVYQDNVYSPDCRFHSFKKVLYEMGPEYSSNVELASFHSTSKGYMGECGYRGGYMEVINLHPEIKGQLVKLLSVRLCPPVSGQAAMDIVVNPPVAGEESFEQFSREKESVLGNLAKKAKLTEDLFNQVPGIHCNPLQGAMYAFPRIFIPAKAVEAAQAHQMAPDMFYCMKLLEETGICVVPGSGFGQREGTYHFRMTILPPVEKLKTVLQKVKDFHINFLEKYA [GPT2] | 0.0799 | 0.017 | -0.2 | -0.215
12 | MSSACDAGDHYPLHLLVWKNDYRQLEKELQGQNVEAVDPRGRTLLHLAVSLGHLESARVLLRHKADVTKENRQGWTVLHEAVSTGDPEMVYTVLQHRDYHNTSMALEGVPELLQKILEAPDFYVQMKWEFTSWVPLVSRICPNDVCRIWKSGAKLRVDITLLGFENMSWIRGRRSFIFKGEDNWAELMEVNHDDKVVTTERFDLSQEMERLTLDLMKPKSREVERRLTSPVINTSLDTKNIAFERTKSGFWGWRTDKAEVVNGYEAKVYTVNNVNVITKIRTEHLTEEEKKRYKADRNPLESLLGTVEHQFGAQGDLTTECATANNPTAITPDEYFNEEFDLKDRDIGRPKELTIRTQKFKAMLWMCEEFPLSLVEQVIPIIDLMARTSAHFARLRDFIKLEFPPGFPVKIEIPLFHVLNARITFGNVNGCSTAEESVSQNVEGTQADSASHITNFEVDQSVFEIPESYYVQDNGRNVHLQDEDYEIMQFAIQQSLLESSRSQELSGPASNGGISQTNTYDAQYERAIQESLLTSTEGLCPSALSETSRFDNDLQLAMELSAKELEEWELRLQEEEAELQQVLQLSLTDK [ANKRD13A] | -0.139 | -0.0203 | 0.86 | 0.416
13 | LAMA3 | -0.331 | 0.0773 | -0.604 | -0.145
